Experimental data: patent US20250034594A1, “RNA-GUIDED GENOME RECOMBINEERING AT KILOBASE SCALE” (THE BOARD OF TRUSTEES OF THE LELAND STANFORD JUNIOR …, priority 2021, published 2025)

B1: SSAP_108: SEQ ID NO: 277; Rummeliibacillus stabekisii (protein, listed as Rummeliibacillus stabekisii)
chain: ATTTELKEQMKQQAPAQTKKPKTIEDYMKQMAPAMAEALPKHMSVDRLTRLAMTTIRTTPALRQADVSSLLGAVMQAAQLGLEPGLLGQCYLLPFKNKKKAITEVQFIIGYKGMIDLARRSGHIQSIYSHAVFENDVFEYELGLEPKLKHTPTMSTDKGAFIGAYAVAHFKDGGHQFEFMSKADIEKRKGRSKAANSDYSPWLTDYEEMAKKTVIRHMWKYLPISVEMQEQVAYDEGVGRSIKDVTPEEDVFVQAPDEILEAEATEA
B2: SSAP_160: SEQ ID NO: 329; Veillonellaceae bacterium DNF00626 (protein)
chain: KTTGGLQQQQQQQAQALQNGGTTLKGYLQAMMPEIKKALPTVMTPERFTRIVMTTISTNPALQNCTPQSFLGAVMQAAQLGVEPNTPLGQAYLIPYGNQVQFQLGYKGLIDLAYRSGEVQSLQAHEVYQNDTFEYELGLNPKLKHIPALTNRGDVILYYAVIKFKNGGEGFEVMSKEDVEAFAKSKSKTYGRGPWQTDFDEMAKKTVLKKVLKYAPMKTDFIRAVATDETVKSSVAEQMADLPDETVTIDTEAQVVVDKETGEVKS
modifications: Veillonellaceae bacterium DNF00626
B3: SSAP_133: SEQ ID NO: 302; Lacrimispora celerecrescens (protein, listed as Lacrimispora celerecrescens)
chain: SDVKQELEKRAAGGGSQSQSVKLTKNMTIVDMVKALEPEIKRALPSILTPERFTRMALSAINNTPKLGECTPMSFIAALMNAAQLGLEPNTPLGQAYLIPYKNKGVLECQFQLGYRGLIDLAYRNDRMQSIEAQVVYENDEFSYELGLHPSLTHRPSFDEPGEIRAFYAIFRLDNGGFRFEVMSKSYVDAYATKYSKAFTSDFSPWKNNYEGMAKKTVIKQLLKYAPIKSDFQKAITLDETVKTQLSIDMSEIRNECLPDTSENSEVA
B4: SSAP_1: SEQ ID NO: 172 (protein)
chain: ATNESLKNQLSTKKETGLGSAGNTIKGLMNSPAIKKRFEEVLKQRAPQYMSSIVNLVNSDINLKKCDQMSVVASCMVAATLDLPVDKNLGYAWVVPYGNKAQFQLGYKGYVQLALRTGQYKSINVIEIHEGELIDWNPLTEELKIDFSKKESDAVIGYAGYFELLNGFKKSTYWTKEQITKHKNKFSKSDFGWKKDFDAMARKTVLRNMLSKWGILSIEMQNAYTADQGIIKNEIIETGEVKENIEYIEADFESYEDNSIEEGGANE
B5: SSAP_21: SEQ ID NO: 190; Cellulosilyticum lentocellum (protein, listed as Cellulosilyticum lentocellum)
chain: SDKKELVLKETHSRLNQLLATKMEAMPKDFNQTRFLQNCMTVLQDTKGIENCHPVSIARTLLKGAFLGLDFFQRECYAIPYGGELQFQTDYKGETKMAKKYSIRDIKDIYAKVVRKGDEFKEEIVAGQQVVDFKPLPFNDAEIIGAFAVVLYQDGGMEYETMSTKQIEGIRDNFSKMKNGLMWTKTPEEAYKKTVLRRLTKKIEKDFASIDQAKAYEESSDMQFKQDEQKQDAKDPFADAVDVEFTEETEGQVRLDGEADGAK

test system: gene editing with Cas9; assay: Screen of 322 new SSAP proteins, gene editing activity with Cas9 (Table 5); type: cell-based; parameters: Cas9 with SSAP activity: scale not given here; conditions: not given
Excerpt: (§1) 322 new SSAP proteins were identified from sequence data, synthesized, and screened for activity with Cas9 and dCas9. Gene editing activities are shown below in Table 5, followed by amino acid sequences of the proteins.

Point of comparison: B2, “Cas9 with SSAP activity” value 1.888. Against it:
- B1 — lower, 0.069
- B3 — lower, −4.946
- B4 — lower, −4.919
- B5 — lower, −0.774

same assay, conditions: normalized

Point of comparison: B5, “Cas9 with SSAP activity (normalized)” value −0.320. Against it:
- B1 — higher, 0.068
- B2 — higher, 0.942
- B3 — lower, −1.095
- B4 — lower, −0.814

test system: gene editing with dCas9; assay: Screen of 322 new SSAP proteins, gene editing activity with dCas9 (Table 5); type: cell-based; parameters: dCas9 with SSAP activity: scale not given here; conditions: not given
Excerpt: as §1

Point of comparison: B3, “dCas9 with SSAP activity” value −3.605. Against it:
- B1 — lower, −3.682
- B2 — lower, −3.690
- B4 — lower, −3.622
- B5 — lower, −3.610

same assay, conditions: normalized

Point of comparison: B5, “dCas9 with SSAP activity (normalized)” value −0.537. Against it:
- B1 — lower, −0.539
- B2 — lower, −0.763
- B3 — lower, −0.658
- B4 — higher, −0.496

test system: gene editing with Cas9 and dCas9; assay: Screen of 322 new SSAP proteins, activity across all experiments (Cas9 and dCas9, Table 5); type: cell-based; parameters: scale not given here; conditions: not given
Excerpt: as §1

Point of comparison: B1, “Activity across all experiments” value −1.807. Against it:
- B2 — higher, −0.901
- B3 — lower, −4.276
- B4 — lower, −4.270
- B5 — lower, −2.192
